Assay results as given in PMC11542851 (PLOS Pathogens, 2024).

Target: T1, SARS-CoV-2 RBD subunit (recombinant) (SARS-CoV-2 Wuhan-Hu-1, UniProt P0DTC2)
Test: not given
Details: not given

Binder	binding result
C68.170 (antibody, V domains shown) VH: QVQLQESGPGLVKPSQTLSLTCTVSGGSISSGGYYWSWIRQHPKKDLEWIGYIYNSGSTYYNPSLKSRVTISIDTTKNQFSLKLSSVTAADTALYYCARSVGAAAQWGGEFDYWGQGTLVTVSS VL: DIQLTQSPSSLSASVGDRVTITCQASQDISNYLNWYQQKPGKAPKLLIYDVFILQAGVPSRFSGSGSGTDFTFTISSLQPEDIATYYCQQYNHLITFGGGTKVEIK	binds
C68.286 (antibody, V domains shown) VH: QSTLKESGPALVKPTQTLTLTCTFSGFSLSTSGMCVSWIRQPPGKALEWLARIDWDDDKYYSTSLETRLTISKDTSKNQVVLTMTNMDPVDTATYYCARMTVAGPSLDYWGQGTLVTVSS VL: not shown	binds
C68.225 (antibody, V domains shown) VH: EVQLVQSGAEVKKPGESLRISCKGSGYSFTNYWISWVRQMPGKGLEWMGRIDPSDSYTDYSPSFQGHVTISTDKSISTAYLQWSSLKASDTAMYYCARPRGIAAVGTGYNWLDPWGQGTLVIVSS VL: DIQMTQSPSTLSASVGDRVTITCRASQSINSWLAWYQQKPGKAPKLLIYDASSLESGVPSRFSGSGSGTEFTLTISSLQPADFATYYCQQYNALYTFGQGTKLEIK	binds
C68.123 (antibody, V domains shown) VH: EVQLVESGGGLVQPGGSLRLSCSASGFTFSSYTLHWVRQAPGKGLEYVSSISSNGGSTYYADSVKGRFTISRDNSKNTLFLQMSSLRAEDTAIYYCVKGVWLHDFWSGYPSRWGQGTPVTVSS VL: DIQLTQSPSTLSASVGDRVTITCRASQSISNWLAWYQQKPGKAPNLLIYDASSLESGVPSRFSGSGSGTEFTLTISSLQPDDFATYYCQQYNSYPWTFGQGSKVDIK	binds
C68.194 (antibody, V domains shown) VH: QVQLVQSGAELKRPGASVKVSCKAPGHTFTIYAMHWVRQAPGQRPEWMGWINAGNGDTKYSQKFQGRVTITRDTSASTAYMELSSLRSEDTAVYYCATSGSLRFQVDYFDHWGQGTLVTVSS VL: DIQLTQSPSTLSASVGDRVTITCRASQSISSWLAWYRQKPGKAPKLLIYDASNLESGVPSRFSGSGSGTEFTLTISSLQPDDFATYYCQQYNSYPWTFGQGTKVEIK	binds
C68.220 (antibody, V domains shown) VH: QVQLLQSGAEVKKPGASVKVSCKASGYTFTIYAMHLVRQAPGQRLEWMGWINTGNGDTKYSQKFQGRVTITRDTSASTAYMELSSLRSEDTAVYYCAISGSRHFQVDYFDYWGQGTLVTVSS VL: DIQMTQSPSTLSASVGDRVTITCRASQSISRWLAWYQQKPGKAPKLLIYDASSFESGVPSRFSGRGSGTEFTLTISSLQPDDFATYYCQQYKSYPWTFGQGTKVEIK	binds
C68.263 (antibody, V domains shown) VH: EVQLVESGGGVVQPGRSLRLSCAASGFTFSTYAMHWVRQAPGKGLEWVAVISFDGSNTYYADSVKGRFTISRDNSKNTLYLQMNSLRAEDTAVYYCAKDSYYSDRSDYYWRSYGYFGLWGQGTLVTVSS VL: DIQLTQSPSTLSASVGDRVTITCRASQSISSWLAWYQQKPGKAPKLLIYDASSLESGVPSRFSGSGSGTEFTLTISSLQPDDLATYYCQQYRSYSGTFGQGTKVEIK	binds
C68.236 (antibody, V domains shown) VH: QVQVVQSGAELKKPGASVKVSCKAPGHTFTIYAMHWVRQAPGQRLEWMGWINAGNGDTKYSQKFQGRVTITRDTSASTAYMELSSLRSEDTAVYYCASSGSRRFQVDYFDYWGQGTLVTVSS VL: DIQLTQSPSTLSASVGDRVTITCRASQSIRSWLAWYQQKPGKAPKLLIYDASSLESGVPSRFSGSGSGTEFTLTISSLQPDDFATYYCQQYNSYPWTFGQGTKVEIK	binds
C68.256 (antibody, V domains shown) VH: QVQLQESGPGLVKPSETLSLTCSVSGGSISSSSSYWGWIRQPPGKGLEWIGNIDYSGSTYYNPSLKSRVTISVDTSKNQFSLKLSSVTAADTAVYFCARGADYGPYFDYWGQGALLTVSS VL: QSALTQPASVSGSPGQSITISCTGTSSDVGSYNLVSWYQHHPGKAPKLMIYEVSKRPSGVSNRLSGSKSGNTASLTISGLQAEDEADYYCSSYAGSSTFVVFGGGTKLTVL	binds
C68.233 (antibody, V domains shown) VH: QVQLVQSGPEVKKPGTSVKVSCKASGFTFTTSAVQWVRQARGLRLEWIGWIVVGSGNTNYGQKFQERVTITRDMSTSTAYMELSSLRSEDTAVYYCAAPHCNRTNCHDGFDIWGQGTMVTVS VL: EIVLTQSPGTLPLSPGERATLSCRASQSVRSSYLAWYQQKPGQAPRLLIYGASSRATGIPDRFSGSGSGTDFILTISRLEPEDFAVYSCQQYGSSPWTFGQGTKVEIK	binds
C68.304 (antibody, V domains shown) VH: EVQLVESGGGVVQPGRSLRLSCAASGFIFSNYDMHWVRQAPGKGLEWVAVIWYDGSNKYYADSVKGRFTISRDNSKNTLYLQMNSLRADDTAMYYCSRHDSGTYYYFDSWGQGTLVTVSS VL: LTVVTQEPSFSVSPGGTVTLTCGLSSGSVSTSYYPSWYQQTPGQPPRTLIYTTITRSSGVPDRFSGSILGNKAALTITGAQGDDESDYYCVLYMGSGNWVFGGGTKLTVL	binds
C68.279 (antibody, V domains shown) VH: EVQLVQSGAEVKKPGESLKISCKGSGYSFNYYWIGWVRQMPGKGLEWMGIIYPGDSDARYSPSFQGQVTISADKSISTAYLQWSSLKASDTAMYYCGRLVGYSHDLYFDYWGQGTLVTVSS VL: not shown	binds
C68.102 (antibody, V domains shown) VH: QLQLQESGPGLLKPSETLSLTCTVSGGSISSSRYYWGWIRQPPGKGLEWIGSVYYSGTTYYNPSLKSRVTISVDASKNQFSLRLSSVSAADTAVYYCARRLGAIWDWGQGTRVTVSS VL: DIQLTQSPSSLSASVGDRVTITCRASQGISNSLAWYQQKPGKAPKLLLYAASTLESGVPSRFSGSGSGTDYTLTISSLQPEDFAAYYCQQYYSTPTFGQGTKVEIK	binds
C68.100 (antibody, V domains shown) VH: EVQLVQSGAEVKKPGESLRISCKGSGYIFNSYWIIWVRQMPGKGLEWMGRIDPSDSYTNYSPSFQGHVTMSVDKSINTAYLQWSSLKASDTAMYYCARVRFGELSWDTFDYWGQGTLVTVSS VL: DIQVTQSPSSLSASVGDRVTITCRASQSMSYYLNWYQQKPGKAPKLLISAASSLQSGVPSRFSGSGSGTDFTLTISSLQPEDFATYYCQQSYSTPYTFGQGTKLEIK	binds
C68.136 (antibody, V domains shown) VH: EVQLLESGGGLVQPGGSLRLSCAASGFTFSIYAMSWVRQAPGKGLEWVSGISGSGGSTYYADSVKGRFTLSRDNSKNTLFLQMNSLRAEDTAVYYCAKGEGSVVVVSAGVWGKGTTVTVSS VL: DIQLTQSPSSLSASVGDRITITCQASQDISKSLNWYQQKPGKAPKVLIYDASNLETGVPSRFSGSGSGTDFTFTISSLQPEDIATYYCQQYDNLRLTFGGGTKVEIK	binds
C68.180 (antibody, V domains shown) VH: EVQLVESGGGLVKPGGSLRLSCAASGFTFIDYHMSWIRQAPGKGLEWVSYITTTSSYANYADSVKGRFTISRDNAKNSLFLQMNSLRADDTAVYYCARDRGYDLRFDYWGQGTLVTVSS VL: DIQMTQSPSSLSASVGDRVTITCQASQGISNYLNWYQKKPGKAPKLLIYDASNLKTGVPSRFSGSGSGTDFTFTISSLQPEDIATYYCQQYDSLPLTFGGGTKVEIK	binds
C68.281 (antibody, V domains shown) VH: QVQLVQSGAEVRKPGASVKVSCKASGYNFTSYYMHWVRQAPGQGLEWMGIINPSDGSASYAQKFQGRVTMTRDSSTSTVYMELSSLRSDDTAVYFCARGGRILQWFPYFFDYWGQGTLVTVSS VL: EIVLTQSPGTLSLSPGERATLSCRASQSVSIRYLAWYQQKPGQAPRLLIYGASSRATGIPDRFSGSGSGTDFTLTISRLEPEDFAVYYCQQYETFGQGTKVEIK	binds
C68.285 (antibody, V domains shown) VH: QVQLVQSGAEVKKPGASVKVSCKASGYTFSNYFMHWVRQAPGQGLEWMGIINPSGVSTSYAQKFQGRITMTRDTSTSTVYMELSSLRSEDTAVYYCAFEMGAAPFDYWGQGTLVTVSS VL: DIQLTQSPSFLSASVGDRVTITCRASQGISSYLAWYQQKPGKAPKVLIYDASTLQSGVPSRFSGSGSGTEFTLTISSLQPEDFATYYCQQLNTYPQGLTFGGGTKVEIK	binds
C68.138 (antibody, V domains shown) VH: EVQLVQSGAEVKKPGESLRISCKGSGYSSTNYWISWVRQMPGKGLEWMGRIDLSDSYTNYSPSFQGHVTISADKSISTAYLQWSSLKASDTAIYYCARLLTTVTTDWFDPWGQGTLVTVSS VL: DIQMTQSPSSLSASVGDRVTITCRASQSISNYLNWYQQKPGKAPKLLIYTASSLQSGVPSRFSGSGSGTDFTLSISSLKPEDFATYFCQQSYNAPPYTFGQGTKLQIK	binds

Target: T1, SARS-CoV-2 RBD subunit (recombinant)
Test: ELISA
Details: both partners purified

Binder	binding result
C68.175 (antibody, V domains shown) VH: EVQLLESGGGLVQPGGSLRLSCAASGFTFSSYAMSWVRQAPGKGLEWVSGISGSGGSTYYADSVKGRFTISRDNSKNTLHLQMNSLRAEDTAVYYCAKGSRWNPDYFDYWGQGTLVTVSS VL: not shown	binds
C68.83 (antibody, V domains shown) VH: EVQLVESGGGVVQPGRSLRLSCAASGFIFSSYGMHWVRQAPGKGLEWVAVIWYDGSNKYYADSVKGRFTISRDNSKNTLYLQMNSLRAEDTAVYYCARDDPEVGCSGGSCYYYYDMDVWGQGTTVTVSS VL: SYELTQPPSVSVSPGQTARITCSGDALPKQHAHWYQQKPGQAPVLVIYKDIERPSGIPERFSGSSSGTTVTLTISGVQAEDEADYYCQSADSSVTYVVFGGGTKLTVL	binds
C68.121 (antibody, V domains shown) VH: EVQLVESGGGLVKPGGSLRLSCAASGFTFSDYYMTWIRQAPGKGLEWVSKITNSNSYTHYADSVKGRFTISRDNAKNSLFLHMNSLRAEDTAVYYCARAIWIGYPDDYYMDVWGKGTTVTVSS VL: SYELTQPPSVSVSPGQTARITCSGDTLPNQYVYWYQQKPGQAPVLLIYKDTERPSGIPERVSGSTSGTTVTLTISGVQAEDEADYYCQSADSSGTSFGGGTKLTVL	binds
